Data as given in patent US9555076B2, “Neuregulin based methods and compositions for treating cardiovascular diseases” (Zensun (Shanghai) Science & Technology, Co., Ltd., priority 2002, dated 2017).

System: congestive heart failure caused by inferior vena cava constriction in dog
Assay: Echocardiography (EF, FS, CO), inferior vena cava constriction (TIVCC) dog
Assay type: in vivo, crossbred dog
Description: […] dosage level of 1, 3 and 10 μg/kg respectively of rhNRG-1 β was diluted with preparation buffer solution (vehicle) to needed concentration, intravenous injection once everyday for consecutive 5 days.
3% pentobarbital sodium (30 mg/kg) was injected into the peripheral vein to anesthetize the dog, then trachea intubated. […] Bred for 1 week, echocardiography performed according to the amount of ascites, when EF reduced by about 20% or dilatation of the left heart by about 20%, stable low cardiac output congestive heart failure animal model was established. Then intravenous injection of the drug was carried out for consecutive 5 days.
• Heart function index determination was carried out under anesthesia of the dog prior to the operation, prior to and 5-day after the drug administration. Major index included: • EF (Ejection Fraction): heart ejection fraction, i.e., ratio of difference between end diastolic volume of the ventricle (EDV) and end systolic volume of ventricle (ESV) and end diastolic volume of ventricle, being general index used for reflecting pumping function of ventricle; especially reflecting the systolic function; • FS: ventricular short axis shortening rate, being index reflecting contraction function of ventricle, • CO: cardiac output, i.e. blood volume ejected by the heart per minute. 6.3.3.2 Hemodynamic Index Determination

[1] = 1 μg/kg group, prior to drug administration
[2] = 1 μg/kg iv daily 5 days, after drug administration
[3] = 3 μg/kg group, prior to drug administration
[4] = 3 μg/kg iv daily 5 days, after drug administration
[5] = 10 μg/kg group, prior to drug administration
[6] = 10 μg/kg iv daily 5 days, after drug administration

B1: rhNRG-1 β: Recombinant human neuregulin fragment of 61 amino acid (SEQ ID NO:4), 3 disulfide bonds, expressed in E. coli (protein, listed as Homo sapiens)
chain: SHLVKCAEKEKTFCVNGGECFMVKDLSNPSRYLCKCPNEFTGDRCQNYVMASFYKAEELYQ
modifications: disulfide (positions not given here)
**Q.** B1 was tested. Which CO (1 μg/kg group, preoperation) did it give?
**A.** 4.2 ± 0.6 L/min

**Q.** And the EF (1 μg/kg group, preoperation)?
**A.** 82.8 ± 3.0%

**Q.** And the FS (1 μg/kg group, preoperation)?
**A.** 50.8 ± 4.0%

**Q.** What about the CO [1] of the same molecule?
**A.** 2.4 ± 0.5 L/min

**Q.** And the EF [1]?
**A.** 57.7±10.9%

**Q.** What about the FS [1] of the same molecule?
**A.** 30.6±8.0%

**Q.** What about the CO (1 μg/kg group, prior to drug administration, listed as rhNRG-1β) of the same molecule?
**A.** 2.4 ± 0.5 L/min

**Q.** And the CO [2]?
**A.** 3.7 ± 0.8 L/min

**Q.** What about the EF [2] of the same molecule?
**A.** 70.4±8.4%

**Q.** What about the FS [2] of the same molecule?
**A.** 39.7±5.7%

**Q.** And the CO (1 μg/kg iv daily 5 days, after drug administration, listed as rhNRG-1β)?
**A.** 3.7 ± 0.8 L/min

**Q.** What about the CO (3 μg/kg group, preoperation) of the same molecule?
**A.** 4.3 ± 0.8 L/min

**Q.** And the EF (3 μg/kg group, preoperation)?
**A.** 84.7 ± 2.8%

**Q.** What about the FS (3 μg/kg group, preoperation) of the same molecule?
**A.** 51.7 ± 2.9%

**Q.** What about the CO [3] of the same molecule?
**A.** 2.1 ± 0.7 L/min

**Q.** What about the EF [3] of the same molecule?
**A.** 58.0 ± 8.3%

**Q.** What about the FS [3] of the same molecule?
**A.** 29.9 ± 6.4%

**Q.** And the CO [4]?
**A.** 4.0 ± 0.9 L/min

**Q.** And the EF [4]?
**A.** 74.7 ± 4.6 %

**Q.** What about the FS [4] of the same molecule?
**A.** 42.4 ± 4.4 %

**Q.** And the CO (10 μg/kg group, preoperation)?
**A.** 4.3 ± 0.6 L/min

**Q.** And the EF (10 μg/kg group, preoperation)?
**A.** 82.9 ± 2.6%

**Q.** What about the FS (10 μg/kg group, preoperation) of the same molecule?
**A.** 50.5 ± 3.3%

**Q.** And the CO [5]?
**A.** 1.9 ± 0.3 L/min

**Q.** What about the EF [5] of the same molecule?
**A.** 55.8 ± 10.0%

**Q.** And the FS [5]?
**A.** 27.7 ± 5.6%

**Q.** What about the CO [6] of the same molecule?
**A.** 3.6 ± 0.7 L/min

**Q.** What about the EF [6] of the same molecule?
**A.** 74.7 ± 3.2 %

**Q.** And the FS [6]?
**A.** 41.5 ± 3.1 %

**Q.** And the “effect on heart rate” value (1, 3 and 10 μg/kg iv daily 5 days)?
**A.** less effect on heart rate
